Data set [1] in a line: Assay 8: stability of linker-drug compounds. The format is physicochemical. The note with it: high temperature, high humidity, illumination or 0.5% BSA-PBS; LC-MS/MS; Deruxtecan also studied. How it is done: Different linker-drug compounds such as Deruxtecan, JSSW-001, and ZW-002 were studied under high temperature (40° C., 60° C.), high humidity (25° C./75% RH and 25° C./92.5% RH), illumination (illuminance 4500 Lux, near-UV energy […]), or 0.5% BSA-PBS conditions. Samples were collected at different times after exposure to these conditions, and the concentration changes of the linker-drug compounds in the samples were detected using the LC-MS/MS method.

The conditions of data set [2]: Phase Ib, cited from earlier work.
For data set [3] the following is noted: more active than the common chemotherapy drug irinotecan; cited from earlier work.
The test system of data set [4] is human colon cancer SW620 xenograft tumour. Put plainly: Assay 15: efficacy of patritumab-ADC on SW620 xenograft tumour. The conditions noted are these: 7 mg/kg i.v./single administration. It is filed as in vivo, NU/NU mice. An excerpt:
The assay was terminated on day 26 after the administration. The inhibition effects of patritumab-DXD ADC (DAR=7.3) and patritumab-JSSW-001 ADC (DAR=7.36) on human colon cancer SW620 xenograft tumour in nude mice were compared.

Data set [5] relates to human lung adenocarcinoma PC9-GR (gefitinib-resistant cell) xenograft tumour. Put plainly: Assay 3: efficacy of patritumab-ADC on PC9-GR xenograft tumour. The conditions noted are these: 3 mg/kg i.v./qw*4 w. It is filed as in vivo, NU/NU mice.
The subject of data set [6] is human colorectal cancer DiFi xenograft tumour. Put plainly: Assay 16: efficacy of patritumab-ADC on DiFi xenograft tumour. It is filed as in vivo, NU/NU mice. The conditions noted are these: Table 29: 10 mg/kg i.v./qw*3w. An excerpt: The assay was terminated on day 28 after the administration.
The conditions of data set [7]: early data published by the company; cited from earlier work.
In data set [8] the target is T1, EGFR on MDA-MB-468 cells (human, UniProt P00533 25-1210).
T1 construct: whole, on cells; also called epidermal growth factor receptor; HER1
The experiment in a line: flow cytometry on MDA-MB-468 cells, pH 6.0; ratio of EC50 to SWY2110. (In general: A flow cytometer gives signals particle by particle.)

Data set [9] deals with T1, EGFR on MDA-MB-468 cells. The experiment in a line: flow cytometry on MDA-MB-468 cells, antibody diluted in PBS pH 6.0, FITC anti-human Fc.
Data set [10] addresses T1, EGFR on MDA-MB-468 cells. The experiment in a line: flow cytometry on MDA-MB-468 cells, pH 7.4; ratio of EC50 to SWY2110.
In data set [11] the target is T1, EGFR on MDA-MB-468 cells. The experiment in a line: flow cytometry on MDA-MB-468 cells, antibody diluted in PBS pH 7.4, FITC anti-human Fc.

Residue numbers refer to the chain shown, from its start. Like-named read-outs stand apart in the source and are kept apart here. Marks after values point to notes of the source that are not given here. *1 amine or outer side, *2 acyl side, *3 side chain or, on linkers, in order; H or OH if unused. Where a SMILES comes first, the peptide text is derived from it. [ ]: non-standard residue; d: D form. The star is where a group is joined. Exatecan = CC[C@@]1(O)C(=O)OCc2c1cc1n(c2=O)Cc2c-1nc1cc(F)c(C)c3c1c2[C@@H](N*)CC3; Hexanoyl(6-maleimido) = O=C1C=CC(=O)N1CCCCCC(=O)*; X1 = C[C@@H](OCN[*:1])C(=O)[*:2]; X2 = O=C(COCCOCN[*:1])[*:2]

Take `CC[C@@]1(O)C(=O)OCc2c1cc1n(c2=O)Cc2c-1nc1cc(F)c(C)c3c1c2[C@@H](NC(=O)COCCOCNC(=O)CNC(=O)[C@H](Cc1ccccc1)NC(=O)CNC(=O)CNC(=O)CCCCCN1C(=O)C=CC1=O)CC3` [ZW-002, N—((S)-13-benzyl-1-(((1S,9S)-9-ethyl-5-fluoro-9-hydroxy-4-methyl-10,13-dioxo-2,3,9,10,13,15-hexahydro-1H,12H-benzo[de]pyrano[3′,4′:6,7]indolizino[1,2-b]quinolin-1-yl)amino)-1,9,12,15,18-pentaoxo-3,6-dioxa-8,11,14,17-tetraazanonadecan-19-yl)-6-(2,5-dioxo-2,5-dihydro-1H-pyrrol-1-yl)hexanamide] ({Hexanoyl(6-maleimido)}-GGFG[X2]-Exatecan): the “stability of linker-drug compound” value in [1] is recorded as “better stability”.

Turning to MRG003, the “objective response rate (ORR)” value is 44% in data set [2] (patients with nasopharyngeal carcinoma (4/9)) and 40% in [2] (patients with non-small cell lung cancer (4/10)).

Regarding `CC[C@@]1(O)C(=O)OCc2c1cc1n(c2=O)Cc2c-1nc1cc(F)c(C)c3c1c2[C@@H](NC(=O)CO)CC3` [DXd], in data set [3], the “activity relative to irinotecan” value was 10 times.

Consider `CC[C@@]1(O)C(=O)OCc2c1cc1n(c2=O)Cc2c-1nc1cc(F)c(C)c3c1c2[C@@H](NC(=O)[C@@H](C)OCNC(=O)CNC(=O)[C@H](Cc1ccccc1)NC(=O)CNC(=O)CNC(=O)CCCCCN1C(=O)C=CC1=O)CC3` [JSSW-001, N-((2R,10S)-10-benzyl-1-(((1S,9S)-9-ethyl-5-fluoro-9-hydroxy-4-methyl-10,13-dioxo-2,3,9,10,13,15-hexahydro-1H,12H-benzo[de]pyrano[3′,4′:6,7]indolizino[1,2-b]quinolin-1-yl)amino)-2-methyl-1,6,9,12,15-pentaoxo-3-oxa-5,8,11,14-tetraazahexadecan-16-yl)-6-(2,5-dioxo-2,5-dihydro-1H-pyrrol-1-yl)hexanamide] ({Hexanoyl(6-maleimido)}-GGFG[X1]-Exatecan), for which the “stability of linker-drug compound” value in data set [1] is recorded as “better stability”.

In the case of “patritumab-DXD ADC (DAR = 7.3): patritumab antibody conjugated with commercially available Deruxtecan [reference compound]”, the “TGI(%) Day 21” value in data set [4] is given as 73.2%. For the same molecule, the entries for the “Tumour Volume” value in data set [4] (21 days after administration), in data set [5] (28 days after administration) and in [6] (28 days after administration) were 461.3 ± 278.1*** mm^3, 373.4 ± 102.8** mm^3 and 512.5 ± 470.8* mm^3, respectively. In addition, the “TGI(%) Day 28” value was determined as 59.5% in [5] and 54.0% in data set [6].

B1: BA3011 (conjugate, chains of the INN, looked up)
VH: EVQLVQSGAEVKKPGATVKISCKVSGYSFWGATMNWIRQPPGKGLEWIGLIKPSNGGTSYNQKFKGRVTISADKSISTAYLQWSSLKASDTAMYYCAHGHYESYEAMDYWGQGTLVTVSS
VL: DIQMTQSPSSLSASVGDRVTITCKASQDVVSAVAWYQQKPGQAPRLLIYWQDTRHTGVPSRFSGSGSGTEFTLTISSLQPDDFATYYCQEHFSPPLTFGQGTKVEIK
modifications: vedotin (MMAE) payload
Turning to B1, the target-related toxicity entry in [7] was “no obvious target-related toxicity”.

B2: EGFR antibody SWY2111 (antibody, human IgG1, kappa, V domains shown)
VH: QVQLQESGPGLVKPSETLSLTCTVSGFSLSDYDVHWVRQAPGKGLEWLGVIWSGGNTDYNTPFTSRLTISVDTSKNQFSLKLSSVTAADTAVYYCARALDDYDYEFAYWGQGTLVTVSS
VL: EIVLTQSPDFQSVTPKEKVTITCRASQSIGTNIHWYQQKPDQSPKLLIKYASESISGIPSRFSGSGSGTDFTLTINSLEAEDAATYYCQQNNEWPTSFGQGTKLEIKR
By EC50 is commonly meant the concentration at which the effect is half-maximal. Consider B2, for which the “fold change of affinity compared to SWY2110” value with EGFR on MDA-MB-468 cells [8] is 1.2 to 1.3 times. The EC50 in the data set with EGFR on MDA-MB-468 cells [9] came to 0.6 nM; in the data set with EGFR on MDA-MB-468 cells [11], 1.45 nM. For the same molecule, the “fold decrease of affinity compared to SWY2110” value with EGFR on MDA-MB-468 cells [10] amounted to 3 times.

B3: EGFR antibody SWY2112 (antibody, human IgG1, kappa, V domains shown)
VH: B2 VH with D31E
VL: B2 VL
As for B3, in the data set with EGFR on MDA-MB-468 cells [8], the “fold change of affinity compared to SWY2110” value lay within 1.2 to 1.3 times. For the same molecule, the values for the concentration giving a half-maximal response (EC50) with EGFR on MDA-MB-468 cells [9] and with EGFR on MDA-MB-468 cells [11] were 0.67 nM and 2.35 nM, respectively.

B4: EGFR antibody SWY2113 (antibody, human IgG1, kappa, V domains shown)
VH: B2 VH with D31H
VL: B2 VL
As for B4, the “fold decrease of affinity compared to SWY2110” value was 6.6 times with EGFR on MDA-MB-468 cells [8] and 3 to 9.7 times with EGFR on MDA-MB-468 cells [10]. Moreover, the EC50 turned out to be 3.39 nM with EGFR on MDA-MB-468 cells [9] and 4.76 nM with EGFR on MDA-MB-468 cells [11].

B5: BA3021 (conjugate, chains of the INN, looked up)
VH: EVQLVQSGAEVKKPGESLRISCKGSGYTFTEYTMHWVRQAPGQGLEWMGGINTNNGGTGYNQKFKGRVTISADKSISTAYLQWSSLKASDTAMYYCAHGSLYSYGNSYFDYWGQGTLVTVSS
VL: AIQLTQSPSSLSASVGDRVTITCSATSSVSYMHWYLQKPGQSPQLLIYGTSNLASGVPDRFSGSGSGTDFTLKISRVEAEDVGVYYCQQRSSYPFTFGQGTKVEIK
modifications: vedotin (MMAE) payload
On to B5, for which, in data set [7], the target-related toxicity result is recorded as “no obvious target-related toxicity”.

The values are drawn from patent publication US20250345445A1, “ANTIBODY-DRUG CONJUGATE AND USE THEREOF” (CSPC MEGALITH BIOPHARMACEUTICAL CO., LTD., priority 2021, published 2025).
